This experiment addresses dynein (Saccharomyces cerevisiae, UniProt P36022).

The values below come from paper PMC5732302 (2017).

dynein, sequence (P36022 whole entry): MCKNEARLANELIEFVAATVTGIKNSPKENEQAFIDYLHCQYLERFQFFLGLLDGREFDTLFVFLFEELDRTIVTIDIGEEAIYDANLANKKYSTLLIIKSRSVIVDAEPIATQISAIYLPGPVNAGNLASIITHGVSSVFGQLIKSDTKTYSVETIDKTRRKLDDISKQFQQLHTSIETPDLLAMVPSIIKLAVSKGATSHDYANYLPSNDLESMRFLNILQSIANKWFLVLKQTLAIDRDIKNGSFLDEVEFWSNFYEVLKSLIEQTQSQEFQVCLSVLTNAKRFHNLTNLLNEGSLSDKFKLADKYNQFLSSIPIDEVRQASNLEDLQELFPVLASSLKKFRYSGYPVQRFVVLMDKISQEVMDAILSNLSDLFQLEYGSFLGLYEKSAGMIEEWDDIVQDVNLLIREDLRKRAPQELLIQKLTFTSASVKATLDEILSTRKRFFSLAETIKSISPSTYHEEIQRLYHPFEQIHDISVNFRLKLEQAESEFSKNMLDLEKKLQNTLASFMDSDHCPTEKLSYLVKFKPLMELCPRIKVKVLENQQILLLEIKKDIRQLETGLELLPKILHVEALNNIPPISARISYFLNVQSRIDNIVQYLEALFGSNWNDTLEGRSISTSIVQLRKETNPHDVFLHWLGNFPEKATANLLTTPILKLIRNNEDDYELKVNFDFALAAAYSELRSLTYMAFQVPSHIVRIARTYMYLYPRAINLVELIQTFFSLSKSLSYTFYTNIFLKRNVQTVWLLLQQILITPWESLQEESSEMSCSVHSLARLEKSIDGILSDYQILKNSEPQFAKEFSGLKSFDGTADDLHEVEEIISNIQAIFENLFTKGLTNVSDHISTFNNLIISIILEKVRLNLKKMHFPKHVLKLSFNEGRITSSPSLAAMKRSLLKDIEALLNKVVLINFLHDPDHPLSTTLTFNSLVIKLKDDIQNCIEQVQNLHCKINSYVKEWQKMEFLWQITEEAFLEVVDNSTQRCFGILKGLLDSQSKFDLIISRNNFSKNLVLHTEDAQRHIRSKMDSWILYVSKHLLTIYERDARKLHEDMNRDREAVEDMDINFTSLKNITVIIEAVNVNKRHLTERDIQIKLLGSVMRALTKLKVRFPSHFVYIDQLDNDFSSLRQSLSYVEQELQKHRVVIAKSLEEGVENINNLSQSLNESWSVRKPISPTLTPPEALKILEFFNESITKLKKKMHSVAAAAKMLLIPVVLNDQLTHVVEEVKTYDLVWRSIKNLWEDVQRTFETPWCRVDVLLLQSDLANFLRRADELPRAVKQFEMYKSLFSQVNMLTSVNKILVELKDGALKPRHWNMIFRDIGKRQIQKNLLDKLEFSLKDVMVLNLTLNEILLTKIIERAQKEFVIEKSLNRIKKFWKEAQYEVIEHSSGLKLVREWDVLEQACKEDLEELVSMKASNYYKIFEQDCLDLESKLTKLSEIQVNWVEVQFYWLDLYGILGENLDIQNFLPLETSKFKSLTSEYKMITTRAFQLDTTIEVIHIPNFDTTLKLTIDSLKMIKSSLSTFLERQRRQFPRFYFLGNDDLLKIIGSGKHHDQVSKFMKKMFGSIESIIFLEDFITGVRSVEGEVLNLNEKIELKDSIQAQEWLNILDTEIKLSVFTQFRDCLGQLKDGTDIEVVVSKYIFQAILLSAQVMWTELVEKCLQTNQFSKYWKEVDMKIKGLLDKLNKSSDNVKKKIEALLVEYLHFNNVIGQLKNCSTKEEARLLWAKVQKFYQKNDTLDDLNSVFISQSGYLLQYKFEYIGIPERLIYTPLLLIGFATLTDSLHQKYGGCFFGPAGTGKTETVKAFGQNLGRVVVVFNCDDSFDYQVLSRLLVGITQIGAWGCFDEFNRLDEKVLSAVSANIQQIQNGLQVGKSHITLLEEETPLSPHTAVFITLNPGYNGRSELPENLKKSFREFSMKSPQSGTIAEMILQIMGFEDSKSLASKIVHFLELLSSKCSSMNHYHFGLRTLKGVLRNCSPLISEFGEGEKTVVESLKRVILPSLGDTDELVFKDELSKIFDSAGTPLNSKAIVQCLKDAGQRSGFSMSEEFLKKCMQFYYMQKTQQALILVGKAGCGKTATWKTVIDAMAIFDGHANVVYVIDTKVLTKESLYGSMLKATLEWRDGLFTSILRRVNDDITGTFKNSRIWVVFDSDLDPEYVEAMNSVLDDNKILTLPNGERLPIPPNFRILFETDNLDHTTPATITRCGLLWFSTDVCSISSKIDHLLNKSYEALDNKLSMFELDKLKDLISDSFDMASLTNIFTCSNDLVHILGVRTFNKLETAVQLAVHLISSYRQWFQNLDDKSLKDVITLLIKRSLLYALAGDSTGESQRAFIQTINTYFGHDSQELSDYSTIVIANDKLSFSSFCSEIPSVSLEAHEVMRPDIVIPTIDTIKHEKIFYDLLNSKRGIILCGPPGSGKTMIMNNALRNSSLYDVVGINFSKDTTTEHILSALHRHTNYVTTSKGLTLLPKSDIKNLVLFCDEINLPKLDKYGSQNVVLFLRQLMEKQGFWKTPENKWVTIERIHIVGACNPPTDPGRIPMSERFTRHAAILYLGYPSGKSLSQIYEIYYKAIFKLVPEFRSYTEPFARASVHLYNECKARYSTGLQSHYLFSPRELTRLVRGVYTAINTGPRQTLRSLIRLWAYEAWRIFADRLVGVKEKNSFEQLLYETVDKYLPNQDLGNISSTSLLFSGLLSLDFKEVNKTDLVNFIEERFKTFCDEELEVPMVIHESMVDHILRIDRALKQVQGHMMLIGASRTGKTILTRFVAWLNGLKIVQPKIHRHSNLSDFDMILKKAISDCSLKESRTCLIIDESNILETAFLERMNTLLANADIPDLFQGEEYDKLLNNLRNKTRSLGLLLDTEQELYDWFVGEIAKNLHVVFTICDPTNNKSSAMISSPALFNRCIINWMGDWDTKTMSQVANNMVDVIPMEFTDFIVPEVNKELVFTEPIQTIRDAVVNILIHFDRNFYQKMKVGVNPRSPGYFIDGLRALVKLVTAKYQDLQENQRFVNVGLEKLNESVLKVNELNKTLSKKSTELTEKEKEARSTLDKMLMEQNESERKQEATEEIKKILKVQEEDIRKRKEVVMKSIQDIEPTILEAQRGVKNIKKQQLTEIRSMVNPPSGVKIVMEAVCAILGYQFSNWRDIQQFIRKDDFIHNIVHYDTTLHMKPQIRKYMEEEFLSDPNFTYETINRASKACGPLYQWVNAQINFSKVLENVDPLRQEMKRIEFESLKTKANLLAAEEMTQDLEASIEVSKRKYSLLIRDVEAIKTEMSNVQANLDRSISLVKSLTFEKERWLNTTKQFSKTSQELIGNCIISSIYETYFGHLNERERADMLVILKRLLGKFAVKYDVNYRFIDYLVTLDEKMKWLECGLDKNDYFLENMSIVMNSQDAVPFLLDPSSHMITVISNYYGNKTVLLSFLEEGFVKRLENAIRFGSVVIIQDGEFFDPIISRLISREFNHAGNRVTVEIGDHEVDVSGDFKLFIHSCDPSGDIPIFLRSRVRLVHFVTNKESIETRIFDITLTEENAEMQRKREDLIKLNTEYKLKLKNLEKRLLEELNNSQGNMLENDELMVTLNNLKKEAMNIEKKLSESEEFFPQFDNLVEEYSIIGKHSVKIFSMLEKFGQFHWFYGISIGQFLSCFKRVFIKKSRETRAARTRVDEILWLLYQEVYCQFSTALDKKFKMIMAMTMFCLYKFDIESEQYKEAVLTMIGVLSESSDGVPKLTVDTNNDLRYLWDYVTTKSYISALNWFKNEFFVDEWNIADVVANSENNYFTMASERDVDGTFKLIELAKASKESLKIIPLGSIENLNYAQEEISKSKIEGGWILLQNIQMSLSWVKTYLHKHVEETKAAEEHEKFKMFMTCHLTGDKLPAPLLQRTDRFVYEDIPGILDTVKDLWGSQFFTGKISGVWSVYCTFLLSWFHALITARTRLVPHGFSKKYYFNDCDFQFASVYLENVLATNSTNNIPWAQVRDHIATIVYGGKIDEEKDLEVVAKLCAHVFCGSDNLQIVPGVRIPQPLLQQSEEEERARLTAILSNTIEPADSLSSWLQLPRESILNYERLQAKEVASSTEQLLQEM

B1: She1 (protein)
chain: MNDKLQEEHNEKDTTSQINGFTPPHMSIDFHSNNNSNIIETIGVSKRLGNSVLSELDSRASSKFEFLKDQSEQQYNGDKNNEPKSGSYNINEFFQAKHDSQFGQMESLDTHYTLLHTPKRKSQHAIPQDRSDSMKRSRPSRSIPYTTPVVNDITRRIRRLKLRNSLVNGNDIVARARSMQANSNINSIKNTPLSKPKPFMHKPNFLMPTTNSLNKINSAHRNTSSSSTASSIPRSKVHRSISIRDLHAKTKPVERTPVAQGTNSQLKNSVSVFDRLYKQTTFSRSTSMNNLSSGTSAKSKEHTNVKTRLVKSKTSGSLSSNLKQSTATGTKSDRPIWR
By Kd is commonly meant the free concentration of one partner at which half of the binding sites on the other are occupied at equilibrium, for simple one-to-one binding. Low readings indicate tighter binding, high ones weaker binding. Turning to B1, the Kd was less than 0.2 nM.
